This assay has as its target T1, human NKG2D (human, UniProt P26718 78-216, limits assumed).
T1 sequence (looked up): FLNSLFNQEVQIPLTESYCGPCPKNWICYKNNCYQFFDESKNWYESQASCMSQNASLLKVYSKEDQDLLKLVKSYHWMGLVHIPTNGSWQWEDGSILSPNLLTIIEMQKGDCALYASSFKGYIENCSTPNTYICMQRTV
In words: assay not described.

B1: F3′-1158 dead-2D (bispecific antibody, human IgG1, kappa)
chain: DIVMTQSPDSLAVSLGERATINCRASESVDTYGSSFVHWYQQKPGQPPKLLIYLASNLESGVPDRFSGSGSGTDFTLTISSLQAEDVAVYYCQQNNEEPWTFGCGTKVEIKGGGGSGGGGSGGGGSGGGGSQVQLVQSGAEVKKPGASVKVSCKASGYTFTRYVMHWVRQAPGQCLEWMGFINPYNDDTKYNEKFKGRVTITRDTSASTAYMELSSLRSEDTAVYYCARWRQLGSLDSWGQGTTVTVSSGSDKTHTCPPCPAPELLGGPSVFLFPPKPKDTLMISRTPEVTCVVVDVSHEDPEVKFNWYVDGVEVHNAKTKPREEQYNSTYRVVSVLTVLHQDWLNGKEYKCKVSNKALPAPIEKTISKAKGQPREPRVYTLPPCRDELTKNQVSLTCLVKGFYPSDIAVEWESNGQPENNYKTTPPVLVSDGSFTLYSKLTVDKSRWQQGNVFSCSVMHEALHNHYTQKSLSLSPG
heavy: EVQLVESGGGLVKPGGSLRLSCAASGFTFSSYSMNWVRQAPGKGLEWVSSISSSSSYIYYADSVKGRFTISRDNAKNSLYLQMNSLRAEDTAVYYCARGAPIGAAAGWFDPWGQGTLVTVSSASTKGPSVFPLAPSSKSTSGGTAALGCLVKDYFPEPVTVSWNSGALTSGVHTFPAVLQSSGLYSLSSVVTVPSSSLGTQTYICNVNHKPSNTKVDKKVEPKSCDKTHTCPPCPAPELLGGPSVFLFPPKPKDTLMISRTPEVTCVVVDVSHEDPEVKFNWYVDGVEVHNAKTKPREEQYNSTYRVVSVLTVLHQDWLNGKEYKCKVSNKALPAPIEKTISKAKGQPREPQVCTLPPSRDELTENQVSLTCLVKGFYPSDIAVEWESNGQPENNYKTTPPVLDSDGSFFLYSWLTVDKSRWQQGNVFSCSVMHEALHNHYTQKSLSLSPG
light: DIQMTQSPSTLSASVGDRVTITCRASNSISSWLAWYQQKPGKAPKLLIYEASSTKSGVPSRFSGSGSGTEFTLTISSLQPDDFATYYCQQYDDLPTFGGGTKVEIKRTVAAPSVFIFPPSDEQLKSGTASVVCLLNNFYPREAKVQWKVDNALQSGNSQESVTEQDSKDSTYSLSSTLTLSKADYEKHKVYACEVTHQGLSSPVTKSFNRGEC
notes: also called first variant
For B1, the binding result is reported as “no binding”.
